Experimental data from patent US20240166765A1, “INFLAMMATORY DISEASE TREATMENT USING ANTI-TISSUE FACTOR ANTIBODIES” (Iconic Therapeutics LLC, priority 2020, published 2024).

Tests used:
Type in all cases: binding
[1] = molecular target: T1, human TF (TF-positive MDA-MB-231 cells) (Homo sapiens, UniProt P13726); assay: Antibody competition assay with 43D7 on MDA-MB-231 cells; settings: 20 nM 43D7-Alexa488
T1 construct: Human TF-positive cancer cell lines A431 and MDA-MB-231; host or cells: MDA-MB-231
Method: Alexa Fluor antibodies were generated using Alexa Fluor 488 5-sulfo-[…] esters (ThermoFisher Scientific) following manufacturer's protocol. Excess Alexa Fluor dye was removed from the antibody dye conjugate preparations by gel filtration (ThermoFisher Scientific).
After another 1 hr incubation on ice, cells were washed, stained with a viability dye, and analyzed by flow cytometry. The Alexa488 fluorescence data from viable cells was summarized using median fluorescence intensity.

[2] = molecular target: T2, chimeric human-rat TF constructs expressed on HEK293 cells (Homo sapiens, UniProt P13726, A112W/A121H/D76N/DEL115-116/DUP123-123/E127T/E131K/E137D/E58Q/F108L/F82T/G113R/G75R/INS118HGKETLF/K100N/K47I/K73R/L104E/L125P/L136R/N139K/N50D/P130R/Q101W/Q64Y/S120T/S129A/S79Y/T133L/T72D/V62T/V65T/Y110V/Y126F/Y83G); assay: Epitope binning, chimeric TF construct mapping (live cell staining assay); settings: construct h1-107_r (52); human segment replaced by rat segment
T2 construct: expressed in transfected cells; host or cells: HEK293
Method: (§1) To establish binding of the anti-human TF antibodies to the various TF constructs, HEK293 cells were transfected with a DNA plasmid that co-expresses the TF construct and a green fluorescent protein marker. For a subset of the antibodies, an antibody titration (a 12-point 1:3 dilution series starting at 250 nM) was evaluated on select TF constructs (See international PCT application PCT/US2019/012427 and U.S. utility application Ser. No. 16/959,652, incorporated herein by reference in their entirety). […] Two days after transfection, cells were collected from the tissue culture plate, stained with 15 μg/ml of the indicated anti-TF antibody, washed, stained with anti-human IgG-Fc Alexa Fluor 647 polyclonal antibody, washed, and stained with the viability dye 4′,6-Diamidino-2-Phenylindole, Dihydrochloride. Upon acquisition of 80,000 live events on a flow cytometer, live cells marked with the fluorescent marker were analyzed for the degree of staining by the anti-TF antibody. […] As used herein, the term “live cell staining assay” refers to the antibody binding assay used in this example.
(§2) When “Percentage antibody binding to TF construct relative to hTF” in Tables 51 and 52 was less than 50%, the antibody was considered a non-binder (0) in Tables 53 and 54.

[3] = molecular target: T3, chimeric human-rat TF constructs expressed on HEK293 cells (Homo sapiens, UniProt P13726, A112W/A121H/DEL115-116/DUP123-123/E127T/E131K/E137D/G113R/INS118HGKETLF/L125P/L136R/N139K/P130R/S120T/S129A/T133L/Y110V/Y126F); assay: as above; settings: construct h78-107_r.v2 (27); human segment replaced by rat segment
T3 construct: expressed in transfected cells; host or cells: HEK293
Method: as §1, §2

[4] = molecular target: T4, chimeric human-rat TF constructs expressed on HEK293 cells (Homo sapiens, UniProt P13726, A200N/K197R/K201T/N203H/S192D/S195T); assay: as above; settings: construct h159-174_r (6); human segment replaced by rat segment
T4 construct: expressed in transfected cells; host or cells: HEK293
Method: as §1, §2

[5] = molecular target: T5, chimeric human-rat TF constructs expressed on HEK293 cells (Homo sapiens, UniProt P13726, D177Q/I184G/K181N/N170G/R168K/S174T/T186I/W190R/Y188T); assay: as above; settings: construct h133-158_r (9); human segment replaced by rat segment
T5 construct: expressed in transfected cells; host or cells: HEK293
Method: as §1, §2

[6] = molecular target: T6, chimeric human-rat TF constructs expressed on HEK293 cells (Homo sapiens, UniProt P13726, D76N/E58Q/F108L/F82T/G75R/K100N/K47I/K73R/L104E/N50D/Q101W/Q64Y/S79Y/T72D/V62T/V65T/Y83G); assay: as above; settings: construct h1-77_r (25); human segment replaced by rat segment
T6 construct: expressed in transfected cells; host or cells: HEK293
Method: as §1, §2

[7] = molecular target: T7, chimeric human-rat TF constructs expressed on HEK293 cells (Homo sapiens, UniProt P13726, E127T/E131K/E137D/L136R/N139K/P130R/S129A/T133L/Y126F); assay: as above; settings: construct h94-107_r (9); human segment replaced by rat segment
T7 construct: expressed in transfected cells; host or cells: HEK293
Method: as §1, §2

[8] = molecular target: T8, chimeric human-rat TF constructs expressed on HEK293 cells (Homo sapiens, UniProt P13726, I184G/K181N/T186I/W190R/Y188T); assay: as above; settings: construct h146-158_r (5); human segment replaced by rat segment
T8 construct: expressed in transfected cells; host or cells: HEK293
Method: as §1, §2

[9] = molecular target: T9, chimeric human-rat TF constructs expressed on HEK293 cells (Homo sapiens, UniProt P13726, K100N); assay: as above; settings: construct hTF_K68N
T9 construct: expressed in transfected cells; host or cells: HEK293
Method: as §1, §2

[10] = molecular target: T10, chimeric human-rat TF constructs expressed on HEK293 cells (Homo sapiens, UniProt P13726, N170G/R168K); assay: as above; settings: construct h133-139_r (2); human segment replaced by rat segment
T10 construct: expressed in transfected cells; host or cells: HEK293
Method: as §1, §2

Q: How did the “% 43D7 binding” value [1] turn out when TF-011 was run?
A: did not reduce

Q: And the “Antibody binding to TF construct” value [2]?
A: 0 (less than 50%, the antibody was considered a non-binder (0))

Q: And the “Antibody binding to TF construct” value [3]?
A: 0 (less than 50%, the antibody was considered a non-binder (0))

Q: And the “Antibody binding to TF construct” value [4]?
A: 1 (between 50% and 150%, the antibody was considered a binder (1))

Q: What about the “Antibody binding to TF construct” value [5] of the same substance?
A: 1 (between 50% and 150%, the antibody was considered a binder (1))

Q: What about the “Antibody binding to TF construct” value [6] of the same substance?
A: 0 (less than 50%, the antibody was considered a non-binder (0))

Q: And the “Antibody binding to TF construct” value [7]?
A: 0 (less than 50%, the antibody was considered a non-binder (0))

Q: And the “Antibody binding to TF construct” value [8]?
A: 1 (between 50% and 150%, the antibody was considered a binder (1))

Q: And the “Antibody binding to TF construct” value [9]?
A: 1 (between 50% and 150%, the antibody was considered a binder (1))

Q: And the “Antibody binding to TF construct” value [10]?
A: 1 (between 50% and 150%, the antibody was considered a binder (1))
